Test results published in US9725518B2, “Antibodies that bind to Jagged 1” (Cancer Research Technology Limited, priority 2013, dated 2017).

B1: J1-65D variant 4: humanised/de-immunised J1-65D: J1-65D_VL_1 + J1-65D_VH_4 (antibody, V domains shown)
VH: QVQLVQSGAEVKKPGSSVKVSCKASGYTFTDYEMHWVRQAPGQGLEWMGAIQPGGGGTAYAQKFQGRVTITADKSTSTAYMELSSLRSEDTAVYYCTRRGYDDYPFAYWGQGTLVTVSSASTKGP
VL: DIQMTQSPSSLSASVGDRVTITCRASGNIHNYLAWYQQKPGKAPKLLIYNAKTLADDVPSRFSGSGSGTDYTLTISSLQPEDFATYYCQHFWSAPWTFGGGTKLEIKRT
B2: J1-65D variant 5: humanised/de-immunised J1-65D: J1-65D_VL_2 + J1-65D_VH_1 (antibody, V domains shown)
VH: QVQLVQSGAELKKPGSSVKVSCKASGYTFTDYEMHWVRQAPGQGLEWMGAIQPGGGGTAYNQKFKGRVTLTADKSTSTAYMELSSLRSEDTAVYYCTRRGYDDYPFAYWGQGTLVTVSSASTKGP
VL: DIQMTQSPSSLSASVGDRVTITCRASGNIHNYLAWYQQKPGKAPKLLIYNAKTLADAVPSRFSGSGSGTDYTLTISSLQPEDFATYYCQHFWSAPWTFGGGTKLEIKRT
B3: J1-65D chimeric: chimeric antibody with unaltered CDRs: J1-65D_VL + J1-65D_VH (antibody, V domains shown)
VL: DIQLTQSPASLSASVGETVTITCRASGNIHNYLAWYQQKQGKSPQLLVYNAKTLADDIPSRFSGSGSGTQYSLKINSLQPEDFGSYYCQHFWSAPWTFGGGTKLEIK
VH: QVQLQQPGAELVRPGASVKLSCKALGYTFTDYEMHWVKETPVHGLEWIGAIQPGGGGTAYNQKFKGKATLTADKSSSTAYMELSSLTSEDSAVYYCTRRGYDDYPFAYWGQGTLVTVSS
B4: J1-183D variant 15: humanised/de-immunised J1-183D: J1-183D_VL_4 + J1-183D_VH_3 (antibody, V domains shown)
VH: QVQLVQSGAELKKPGASVKVSCKVSGYAFTDYAIHWVRQAPGQGLEWMGIINTYYGDSKYAQKFQGRVTMTVDTSTSTAYMELSSLRSEDTAVYYCARGYDGFAYWGQGTLVTVSSASTKGP
VL: DIQMTQSPSSLSASVGDRVTITCRTSENIYSYLTWYQQKPGKAPKLLIYHAKILDSGVPSRFSGSGSGTDFTLTISSLQPEDFATYYCQHHYDIPWTFGGGTKLEIKRT
B5: J1-183D variant 12: humanised/de-immunised J1-183D: J1-183D_VL_3 + J1-183D_VH_4 (antibody, V domains shown)
VH: QVQLVQSGAEVKKPGASVKVSCKASGYTFTDYAIHWVRQAPGQGLEWMGIINTYYGDSKYAQKFQGRVTMTVDTSTSTAYMELSSLRSEDTAVYYCARGYDGFAYWGQGTLVTVSSASTKGP
VL: DIQMTQSPSSLSASVGDRVTITCRTSENIYSYLTWYQQKPGKAPKLLIYNAKILDSGVPSRFSGSGSGTDFTLTISSLQPEDFATYYCQHHYDIPWTFGGGTKLEIKRT

Tests used:
[1] = Soluble aggregates of transiently expressed antibodies; assay type: physicochemical; conditions: Protein A purified antibody
Description: The protein yield of these antibodies, their levels of soluble aggregates and their binding affinity to the immunogen (J1-DE3) are illustrated in (Table 6).

MDA-MB-231 spheroids = assay: Spheroid assay (3-D growth), MDA-MB-231; assay type: cell-based, human; conditions: humanised variants 5 μg/ml
Description: Similar findings were also reported for the Merck anti-N1 mAbs when tested on the LS-1034 cell line. As cell-cell contact is required to activate Notch signalling a spheroid-based 3-D growth model was used to test the ability of the J1 mAbs to block tumour growth. Furthermore, the 3-D model better mimics in vivo conditions including hypoxia and acidosis, allowing evaluation of the mAbs effect in a more realistic setting. Spheroids were generated from MDA-MB-231 breast cancer cells and the ability of different concentrations of the J1-65D mAb to inhibit their growth was evaluated.
Cells were harvested and resuspended in 2.5% Matrigel (BD)-complete DMEM medium. Cell suspension was plated on low-adherence 96-well plates (Corning) (200 μl/well) and spheroids, of approximately fixed cell number (5×10^3 cells for MDA-MB-231 and MDA-MB-468 cell lines; 2×10^3 for MCF7 cells) were then generated by spinning plates at 1800 rpm for 10 minutes. The following day, pictures of the spheroids were taken (day 1) and treatments were added (mAbs were used at 10 μg/ml [5 μg/ml for humanised antibodies] while DBZ was used at the concentration of 100 nM). In some experiments Paclitaxel (1 nM) and Doxorubicin (20 nM) were used in combination with J1-65D mAb treatment. Every 2 days pictures were taken and half of the medium was replaced with fresh one containing mAb/drug. At the end of the experiment, spheroids were either lysed for RNA extraction, were processed and paraffin-embedded for immunohistochemical analysis or were dissociated by pipetting and trypsinization into single cell suspensions for FACS analysis. Spheroid size was evaluated by image analysis using ImageJ software.

[2] = tested on: J1-induced Notch signalling; assay: Luciferase assay, LS174T RBPJ reporter stimulated with J1 protein; assay type: cell-based, human; conditions: humanised/chimeric mAbs 10 μg/ml, NE3-Fc; DBZ control
Procedure: FIG. 9. […] (A) The colorectal cancer cell line LS174T expressing luciferase under the control of Notch co-factor RBPJ was stimulated with mammalian cell-expressed soluble J1 proteins (NE3-Fc and NE12-Fc) or a control protein in the presence of J1 mAbs (10 μg/ml), and luciferase activity was measured. […] (C) Breast cancer MDA-MB-231 cells were cultured with J1 mAbs. The expression level of the Notch target gene HES1 was measured by qPCR using β2m as the control gene. In all experiments the γ-secretase inhibitor DBZ was used as a positive control for pan Notch inhibition and a control mAb (IgG2b or IgG1) or no treatment (NT) were negative controls.
FIG. 20. Inhibition of human Jagged 1/Notch signalling by humanised and de-immunised J1-mAbs in vitro. The colorectal cancer cell line LS174T expressing luciferase under the control of Notch co-factor RbPJ was stimulated with mammalian cell-expressed recombinant J1 protein (NE3-Fc protein, right bar for each treatment) or a control protein (left bar) in the presence of J1 mAbs (10 μg/ml), and luciferase activity was measured. The parental murine monoclonal antibody (Mo), Murine IgG1, DMSO and DBZ were used as controls.
Having established that the J1 mAbs were able to block the binding of the J1 ligand to its receptor N1 their effect on the activity of the Notch signalling pathway was investigated. The human colorectal cancer cell line LS174T, stably expressing a luciferase reporter gene under control of Notch co-factor RBPJ, was stimulated with two forms of immobilised J1 protein: N-terminus to EGF3 and N-terminus to EGF12. […] Importantly, the best two J1 mAbs (J1-65D and J1-183D) were also tested against other Notch ligands in order to verify ligand specificity.
Prior to experiment, clear bottom 96-well plates (CELLSTAR) wells were coated with either J1-ECD fragments (NE3-Fc and NE12-Fc), other Notch-ligands (J2 or DLL4; both from R&D) or control protein (mlgG2b) at the concentration of 5 μg/ml in 0.1% BSA-PBS (overnight incubation at 4° C.). LS174T colorectal cancer cells, expressing the luciferase gene under control of the Notch cofactor RbPJ, were then plated (4×10^4 cells/well) in the presence of different mAbs (10 μg/ml) or DBZ (100 nM). Luciferase activity was then quantified 24 hours later using the Bright-Glo Luciferase Assay System (Promega).

[3] = molecular target: T1, N1 binding to cell surface expressed hJ1 (Homo sapiens, UniProt P78504); assay: Notch binding blocking assay (FACS): N1 EGF11-13 beads staining human J1-expressing cells; design: key: +: Complete blocking; X: No blocking
T1 construct: cell expressed full length human J1 (hJ1; HEK293 transfectants); expressed in transfected cells; host or cells: HEK293
T1 sequence (P78504 34-1218): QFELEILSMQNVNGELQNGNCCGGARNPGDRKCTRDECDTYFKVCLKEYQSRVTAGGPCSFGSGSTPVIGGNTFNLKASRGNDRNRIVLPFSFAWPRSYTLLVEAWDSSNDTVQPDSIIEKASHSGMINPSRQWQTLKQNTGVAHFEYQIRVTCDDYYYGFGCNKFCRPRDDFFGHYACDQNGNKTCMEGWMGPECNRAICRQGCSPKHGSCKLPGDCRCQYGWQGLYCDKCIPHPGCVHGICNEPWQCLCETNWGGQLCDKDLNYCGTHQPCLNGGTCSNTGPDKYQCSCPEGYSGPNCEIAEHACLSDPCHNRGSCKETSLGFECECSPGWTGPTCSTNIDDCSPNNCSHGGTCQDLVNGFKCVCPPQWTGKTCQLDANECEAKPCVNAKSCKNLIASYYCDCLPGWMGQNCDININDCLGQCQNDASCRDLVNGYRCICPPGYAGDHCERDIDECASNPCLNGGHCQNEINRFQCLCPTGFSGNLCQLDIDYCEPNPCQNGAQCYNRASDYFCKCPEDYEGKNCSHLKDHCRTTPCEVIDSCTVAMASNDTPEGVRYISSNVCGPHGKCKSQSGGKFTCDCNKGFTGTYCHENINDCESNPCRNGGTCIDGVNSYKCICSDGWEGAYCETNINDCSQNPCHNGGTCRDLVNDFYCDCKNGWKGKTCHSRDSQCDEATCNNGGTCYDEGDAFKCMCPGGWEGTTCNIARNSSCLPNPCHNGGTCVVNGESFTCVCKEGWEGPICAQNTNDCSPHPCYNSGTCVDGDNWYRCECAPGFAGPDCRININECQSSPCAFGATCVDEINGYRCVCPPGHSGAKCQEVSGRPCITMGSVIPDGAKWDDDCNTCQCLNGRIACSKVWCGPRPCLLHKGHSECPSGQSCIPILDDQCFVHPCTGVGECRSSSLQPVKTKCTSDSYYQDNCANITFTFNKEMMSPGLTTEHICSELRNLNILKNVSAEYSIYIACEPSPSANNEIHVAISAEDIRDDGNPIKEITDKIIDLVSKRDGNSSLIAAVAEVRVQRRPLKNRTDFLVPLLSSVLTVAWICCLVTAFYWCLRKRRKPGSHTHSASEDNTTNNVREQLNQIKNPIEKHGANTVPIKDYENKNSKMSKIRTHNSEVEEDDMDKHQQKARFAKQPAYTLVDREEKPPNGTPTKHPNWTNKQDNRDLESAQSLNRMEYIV
Procedure: To functionally identify mAbs with the capacity to disrupt the J1-N1 protein:protein interaction, hybridoma culture supernatants were tested in a FACS-based binding assay. Biotinylated soluble human N1 EGF11-13 recombinant protein was bound to avidin-coated beads and used to stain J1-expressing cells in the presence or absence of each mAb that recognised cell surface hJ1 by FACS. […] The four blocking antibodies of the invention were also able to block the binding of recombinant […] to a biotin-tagged J1 DSL-EGF3 recombinant protein in an ELISA assay (FIG. 1B). […] The four blocking mAbs of the invention were purified from serum-free culture supernatants and equal concentrations of purified antibodies were used to compare their activity in subsequent assays (unless hybridoma supernatant was specified). Sequence conservation across the DSL domain raised the possibility that the J1 mAbs may also be able to bind the Jagged 2 (J2) protein. Antibody binding specificity was initially tested by immunocytochemical labelling of cytospin samples of hJ1 and hJ2 transfectants (FIG. 2). All antibodies stained J1 transfectants but none stained the J2 transfected cells, and J2 expression in the same experiment was confirmed using a commercial anti-J2 antibody. The specificity of the purified mAbs was further investigated in mammalian cells transfected with hJ2, human Delta-like ligand 4 (hDLL4), or mJ1 (FIG. 3). Transfectants were FACS stained with 10 μg/ml of each of the four blocking mAbs.
To test the blocking efficiencies of the J1 mAbs, purified mAbs were titrated to determine the concentration required to block recombinant N1 binding to cell surface expressed hJ1. Beads coated with a bacterially-expressed N1 EGF11-13 protein were used to stain the hJ1-expressing cells in the presence of various concentrations of mAbs.
The FACS-based binding assay using biotinylated soluble human N1 EGF11-13 recombinant protein bound to avidin-coated fluorescent beads to stain J1-expressing cells was performed using a dilution series of each variant mAb to test their ability to block J1 binding to N1 by FACS (Table 7). […] Thus 12/16 J1-65D1 variants V1-12 and all J1-183D variants have the desired binding and blocking activity.
Human N1 EGF11-13 (411-526) was expressed in E. coli, refolded in vitro and labelled with purple fluorescent avidin-coated beads (Spherotech) as previously described. HEK293 cells transfected with human J1 or B16F10 cells transfected with mouse J1 were stained with N1 fluorescent beads in the presence of J1 antibody supernatants or purified antibody (murine, chimeric or humanised) diluted in HBBS/10% FCS. Cells were washed and re-suspended in staining buffer before being analysed with a FACSCalibur and data analysis with CellQuest. HEK293 cells transfected with human Jagged 2 and B16F10 cells transfected with human and mouse DLL4 were stained similarly to test blocking specificity.

[4] = final antibody concentration 0.2 μg/ml
[5] = final antibody concentration 0.4 μg/ml
[6] = final antibody concentration 0.6 μg/ml
[7] = final antibody concentration 1.0 μg/ml

Molecule	% soluble aggregate [1]	spheroid growth inhibition (MDA-MB-231 spheroids)	inhibition of J1-induced luciferase activity [2]	Blocking of Notch1 binding to cell surface Jagged 1 [3, 4]	Blocking of Notch1 binding to cell surface Jagged 1 [3, 5]	Blocking of Notch1 binding to cell surface Jagged 1 [3, 6]	Blocking of Notch1 binding to cell surface Jagged 1 [3, 7]
B1	0%	slightly reduced ability to inhibit spheroid growth	inhibited as effectively as by the parental murine mAb	X	+ (Complete blocking)	+ (Complete blocking)	+ (Complete blocking)
B2	0%	most comparable to the parental mAb	inhibited as effectively as by the parental murine mAb	X	+ (Complete blocking)	+ (Complete blocking)	+ (Complete blocking)
B3	0%	–	–	X	+ (Complete blocking)	+ (Complete blocking)	+ (Complete blocking)
B4	2.21%	increasingly less effect	–	X	+ (Complete blocking)	+ (Complete blocking)	+ (Complete blocking)
B5	0.66%	increasingly less effect	–	X	+ (Complete blocking)	+ (Complete blocking)	+ (Complete blocking)
